For orientation: stoichiometry N means the number of molecules, sites or subunits per partner or assembly.

The experiment addresses Aβ1-40wt (human). Briefly: SEC.

As for Aβ1-40wt (peptide), the stoichiometry N is 2.

The values above are taken from PMC2728497.
